Measured values published in publication PMC6778150 (Scientific Reports, 2019).
Each block holds one molecule with its values, some of them ahead of it. Non-standard residues stand in square brackets, D forms with d. Residues, ends and D or L forms follow the SMILES beside them. *: point of attachment. Dnp = O=[N+]([O-])c1ccc(*)c([N+](=O)[O-])c1; 2Abz = Nc1ccccc1C(=O)O

What was measured:
[1] = target: His6-tagged protealysin (Serratia proteamaculans)
[2] = target: thermolysin (UniProt P00800)
[3] = type: physicochemical; details: kinetic, from DMSO stock (6 µl + 500 µl), 50 mM Tris-HCl pH 7.4, room temperature, 24 h, spectrophotometric at 365 nm
Method: The substrate sorption on labware complicated the measurement of the Abz-RSVIK(Dnp) solubility since the standard approach based on serial dilutions and identification of the linear range of the experimental concentration-dilution factor relationship could not be used. The substrate solubility was evaluated by periodic spectrophotometric quantitation of its dilutions immediately prepared from the stock in DMSO for one day. Up to 130 µM, the substrate solutions remained stable for 24 h (Supplementary Fig. S3); however, starting from 150 µM their optical density decreased with time. Thus, the substrate has reasonable water solubility and can be used in concentrations up to 130 µM.
The stock solutions (6 µl) in DMSO were supplemented with 500 µl of 50 mM Tris-HCl (pH 7.4). The solutions were incubated at room temperature and the concentration changes were controlled spectrophotometrically for 24 h (Supplementary Fig. S3).
Figure S3. Solubility of Abz-RSVIK(Dnp). Different substrate concentrations were prepared in microcentrifuge tubes (SSI). The stock solution was diluted with DMSO 1.3-20 times. The resulting solutions (6 µl) were supplemented with 500 µl of 50 mM Tris-HCl (pH 7.4). […] A. Measured substrate concentrations for all dilutions and time periods. B. Relationship between substrate concentration and stock quantity 5 h after dilution. […]

[4] = system: protealysin (PLN); test: 2.5 nM PLN in 10 mM NH4HCO3; details: Serratia proteamaculans, 37 °C, up to 40 min
[5] = system: thermolysin (TLN); test: 7.5 nM TLN in 10 mM NH4HCO3; details: 37 °C, up to 40 min
[6] = substrate: CC[C@H](C)[C@H](NC(=O)[C@@H](NC(=O)[C@H](CO)NC(=O)[C@H](CCCNC(=N)N)NC(=O)c1ccccc1N)C(C)C)C(=O)N[C@@H](CCCCNc1ccc([N+](=O)[O-])cc1[N+](=O)[O-])C(=O)O; test: Protease activity assay using Abz-RSVIK(Dnp), hydrolysis kinetic parameters, thermolysin; type: biochemical; details: other: thermolysin 2.5 nM, 37 °C, 50 mM Tris-HCl pH 7.4, substrate 2–130 mM as printed, fluorescence ex 320/em 420 nm, Michaelis-Menten fit, two independent experiments with triplicates
Method: Desired substrate concentrations were obtained by dilution of the stock in DMSO in 50 mM Tris-HCl (pH 7.4).
For the activity assay, 100 µl of the substrate solution at 2–130 mM in 50 mM Tris-HCl (pH 7.4) was added into a well of a black 96-well plate. After incubation at 37 °C for 10 min, 25 µl of the substrate were taken away and replaced with 25 µl of the enzyme solution in the same buffer preheated at 37 °C, and time-related fluorescence changes were monitored on an Infinite M200 Pro (Tecan, Switzerland). Measurements were taken at 37 °C every 10 s for 2–5 min at the excitation and emission wavelengths of 320 and 420 nm, respectively. Fluorescence varied linearly for 3 min. The initial hydrolysis rates were determined from the data obtained within the first 95 s of the reaction. The concentrations of PLN and TLN in the reaction mix were 2.5 nM. In parallel with the hydrolysis rate measurements, the control was conducted with the buffer added to a well instead of an enzyme solution. The main goal of this control was to determine the substrate concentration in the reaction mix. After the incubation, the substrate solution was transferred into a spectrophotometer cell to measure its optical density at 365 nm. The concentration calculated from the obtained OD was taken as the initial substrate concentration in the hydrolysis reaction.
A calibration curve was plotted to convert the obtained relative fluorescence data into the hydrolyzed substrate concentration. […] The course of the reaction was followed by fluorescence changes as described above. The hydrolysis was considered as complete when the fluorescence signal remained steady even after an extra portion of the enzyme was added (Supplementary Fig. S4). After the incubation, serial dilutions of the reaction mix were made, introduced into wells of a 96-well plate and fluorescence was measured as described above. 2,4-Dinitrophenyl was quantified spectrophotometrically in each well as described above. The resulting values were used to plot a calibration curve in coordinates of relative fluorescence units, μM. […]

Molecule: 2-aminobenzoyl-L-arginyl-L-seryl-L-valyl-L-isoleucyl-L-(ε-2,4-dinitrophenyl)lysine (peptide)
KM of hydrolysis of Abz-RSVIK(Dnp) at 37 °C (initial rates fitted to the Michaelis-Menten equation; 2.5 nM enzyme, 50 mM Tris-HCl pH 7.4) [1]: 35 μM | KM of hydrolysis of Abz-RSVIK(Dnp) at 37 °C (initial rates fitted to the Michaelis-Menten equation; 2.5 nM enzyme, 50 mM Tris-HCl pH 7.4) [2]: 33 μM

Molecule: CC[C@H](C)[C@H](NC(=O)[C@@H](NC(=O)[C@H](CO)NC(=O)[C@H](CCCNC(=N)N)NC(=O)c1ccccc1N)C(C)C)C(=O)N[C@@H](CCCCNc1ccc([N+](=O)[O-])cc1[N+](=O)[O-])C(=O)O [Abz-RSVIK(Dnp), 2-aminobenzoyl-L-arginyl-L-seryl-L-valyl-L-isoleucyl-L-(ε-2,4-dinitrophenyl)lysine] (H-[2Abz]RSVIK(Dnp)-OH)
Solubility: concentration from which optical density decreased with time [3]: ≥ 150 µM

cleaved bond [4]: Ser-Val, 20 min | cleaved bond [5]: Ser-Val, 20 min
Molecule: Abz-Arg-Ser-Val-Ile-Lys(Dnp)
not cleaved [4]: products remain undetectable after the time period (40 min) | not cleaved [5]: products remain undetectable after the time period (40 min)

B1: thermolysin (TLN) (Bacillus thermoproteolyticus) (protein)
chain: ITGTSTVGVGRGVLGDQKNINTTYSTYYYLQDNTRGNGIFTYDAKYRTTLPGSLWADADNQFFASYDAPAVDAHYYAGVTYDYYKNVHNRLSYDGNNAAIRSSVHYSQGYNNAFWNGSQMVYGDGDGQTFIPLSGGIDVVAHELTHAVTDYTAGLIYQNESGAINEAISDIFGTLVEFYANKNPDWEIGEDVYTPGISGDSLRSMSDPAKYGDPDHYSKRYTGTQDNGGVHINSGIINKAAYLISQGGTHYGVSVVGIGRDKLGKIFYRALTQYLTPTSNFSQLRAAAVQSATDLYGSTSQEVASVKQAFDAVGVK
notes: purchased Serva, Germany
Km [6]: 33 ± 8 µM | kcat [6]: 7 ± 1 s⁻¹ | kcat/Km [6]: 210000 ± 60000 M⁻¹ s⁻¹
